B1: 14-3-3 protein sigma (Homo sapiens), P31947 (parent)
chain: MERASLIQKAKLAEQAERYEDMAAFMKGAVEKGEELSCEERNLLSVAYKNVVGGQRAAWRVLSSIEQKSNEEGSEEKGPEVREYREKVETELQGVCDTVLGLLDSHLIKEAGDAESRVFYLKMKGDYYRYLAEVATGDDKKRIIDSARSAYQEAMDISKKEMPPTNPIRLGLALNFSVFHYEIANSPEEAISLAKTTFDEAMADLHTLSEDSYKDSTLIMQLLRDNLTLWTADNAGEEGGEAPQEPQS
partner: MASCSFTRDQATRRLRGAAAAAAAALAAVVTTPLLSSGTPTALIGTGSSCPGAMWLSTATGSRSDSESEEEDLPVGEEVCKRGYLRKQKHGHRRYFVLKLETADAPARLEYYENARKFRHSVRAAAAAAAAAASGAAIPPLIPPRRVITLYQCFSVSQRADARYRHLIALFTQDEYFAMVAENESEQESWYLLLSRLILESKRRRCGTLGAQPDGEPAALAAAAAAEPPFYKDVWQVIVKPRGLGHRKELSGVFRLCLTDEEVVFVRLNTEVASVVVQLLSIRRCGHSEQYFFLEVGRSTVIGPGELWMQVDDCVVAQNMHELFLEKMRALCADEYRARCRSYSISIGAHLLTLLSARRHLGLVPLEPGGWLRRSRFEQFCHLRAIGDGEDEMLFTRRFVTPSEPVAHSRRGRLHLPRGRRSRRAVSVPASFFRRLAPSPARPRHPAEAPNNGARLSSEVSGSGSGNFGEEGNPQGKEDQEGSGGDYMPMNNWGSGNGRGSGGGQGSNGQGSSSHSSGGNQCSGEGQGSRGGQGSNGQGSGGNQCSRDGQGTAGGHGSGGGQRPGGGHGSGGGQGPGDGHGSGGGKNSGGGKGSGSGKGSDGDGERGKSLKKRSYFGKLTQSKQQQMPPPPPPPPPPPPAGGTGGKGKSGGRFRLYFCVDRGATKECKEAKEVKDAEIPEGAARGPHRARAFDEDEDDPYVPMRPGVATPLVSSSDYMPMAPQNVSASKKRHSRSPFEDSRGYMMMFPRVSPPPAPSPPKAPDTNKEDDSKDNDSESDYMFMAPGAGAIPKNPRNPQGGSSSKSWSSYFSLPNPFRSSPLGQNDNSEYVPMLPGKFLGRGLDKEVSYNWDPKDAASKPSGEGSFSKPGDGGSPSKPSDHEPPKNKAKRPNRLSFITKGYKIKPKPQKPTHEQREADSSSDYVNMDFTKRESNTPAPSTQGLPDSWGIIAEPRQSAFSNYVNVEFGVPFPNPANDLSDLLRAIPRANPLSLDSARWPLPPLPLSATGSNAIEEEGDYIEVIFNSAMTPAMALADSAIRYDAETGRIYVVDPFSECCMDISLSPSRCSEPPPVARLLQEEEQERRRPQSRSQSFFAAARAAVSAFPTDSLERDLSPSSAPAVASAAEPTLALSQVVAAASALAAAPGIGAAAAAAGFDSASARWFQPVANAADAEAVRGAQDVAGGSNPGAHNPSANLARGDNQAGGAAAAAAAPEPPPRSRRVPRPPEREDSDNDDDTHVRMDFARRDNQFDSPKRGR
B2: 14-3-3 protein sigma (Homo sapiens), P31947 (parent)
chain: B1 chain
partner: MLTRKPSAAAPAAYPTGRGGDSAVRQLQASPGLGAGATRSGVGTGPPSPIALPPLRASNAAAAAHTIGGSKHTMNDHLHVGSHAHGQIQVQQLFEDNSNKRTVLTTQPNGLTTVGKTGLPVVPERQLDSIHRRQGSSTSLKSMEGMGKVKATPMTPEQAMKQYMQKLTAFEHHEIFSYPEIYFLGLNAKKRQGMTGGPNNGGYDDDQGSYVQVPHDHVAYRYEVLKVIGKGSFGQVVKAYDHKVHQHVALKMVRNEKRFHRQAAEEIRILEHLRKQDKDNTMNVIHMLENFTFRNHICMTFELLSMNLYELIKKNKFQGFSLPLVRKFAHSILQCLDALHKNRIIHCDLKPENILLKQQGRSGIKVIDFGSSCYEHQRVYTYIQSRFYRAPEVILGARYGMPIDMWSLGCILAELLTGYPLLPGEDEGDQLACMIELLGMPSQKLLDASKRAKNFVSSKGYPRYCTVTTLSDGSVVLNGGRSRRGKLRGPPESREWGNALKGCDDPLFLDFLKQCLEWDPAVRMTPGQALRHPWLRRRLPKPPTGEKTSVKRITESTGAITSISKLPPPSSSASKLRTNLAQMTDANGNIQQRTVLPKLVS
B3: 14-3-3 protein sigma (Homo sapiens), P31947 (parent)
chain: B1 chain
partner: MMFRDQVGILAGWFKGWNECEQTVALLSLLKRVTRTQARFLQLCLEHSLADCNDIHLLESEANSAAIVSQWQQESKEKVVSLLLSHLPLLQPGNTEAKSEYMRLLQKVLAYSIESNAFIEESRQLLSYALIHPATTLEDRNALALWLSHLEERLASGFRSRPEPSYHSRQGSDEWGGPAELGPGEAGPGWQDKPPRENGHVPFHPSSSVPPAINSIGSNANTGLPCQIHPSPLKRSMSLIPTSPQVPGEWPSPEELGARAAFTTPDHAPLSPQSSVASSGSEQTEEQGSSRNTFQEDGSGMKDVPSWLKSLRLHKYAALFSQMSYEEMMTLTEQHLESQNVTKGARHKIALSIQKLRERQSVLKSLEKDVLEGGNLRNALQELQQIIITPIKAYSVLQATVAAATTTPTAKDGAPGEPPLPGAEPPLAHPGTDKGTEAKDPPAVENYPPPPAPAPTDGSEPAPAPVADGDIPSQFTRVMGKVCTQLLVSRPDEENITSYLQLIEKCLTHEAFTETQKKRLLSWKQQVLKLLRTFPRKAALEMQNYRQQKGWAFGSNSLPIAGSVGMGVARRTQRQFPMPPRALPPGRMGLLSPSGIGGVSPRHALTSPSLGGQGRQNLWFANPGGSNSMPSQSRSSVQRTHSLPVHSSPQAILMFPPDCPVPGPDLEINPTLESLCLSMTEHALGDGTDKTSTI
B4: 14-3-3 protein sigma (Homo sapiens), P31947 (parent)
chain: B1 chain
partner: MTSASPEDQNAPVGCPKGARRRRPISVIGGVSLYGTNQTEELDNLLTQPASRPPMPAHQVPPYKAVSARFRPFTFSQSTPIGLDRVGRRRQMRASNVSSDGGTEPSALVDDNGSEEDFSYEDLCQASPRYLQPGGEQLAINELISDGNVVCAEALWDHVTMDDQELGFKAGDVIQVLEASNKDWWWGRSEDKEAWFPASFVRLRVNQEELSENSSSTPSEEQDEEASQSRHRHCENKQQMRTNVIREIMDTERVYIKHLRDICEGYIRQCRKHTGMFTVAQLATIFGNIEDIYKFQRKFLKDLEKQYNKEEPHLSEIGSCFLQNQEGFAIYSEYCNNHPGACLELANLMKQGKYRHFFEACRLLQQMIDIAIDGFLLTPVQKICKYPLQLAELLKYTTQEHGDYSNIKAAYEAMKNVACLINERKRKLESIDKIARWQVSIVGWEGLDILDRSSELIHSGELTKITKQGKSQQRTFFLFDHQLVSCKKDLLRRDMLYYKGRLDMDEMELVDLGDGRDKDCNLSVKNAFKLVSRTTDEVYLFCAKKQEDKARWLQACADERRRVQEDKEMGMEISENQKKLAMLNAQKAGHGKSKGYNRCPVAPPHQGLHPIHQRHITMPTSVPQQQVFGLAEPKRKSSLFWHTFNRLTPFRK

Variants of: B1
Conditions: with irs4_human IRS4, O14654

Row | Variant | effect of a mutation on the interaction
1 | K49E;R56E;V178D | decreasing interaction strength

Variants of: B2
Conditions: with dyrk2_human DYRK2, Q92630

Row | Variant | effect of a mutation on the interaction
2 | K49E;R56E;V178D | decreasing interaction strength

Variants of: B3
Conditions: with smag2_human SAMD4B

Row | Variant | effect of a mutation on the interaction
3 | K49E;R56E;V178D | decreasing interaction strength

Variants of: B4
Conditions: with spt13_human SPATA13, Q96N96

Row | Variant | effect of a mutation on the interaction
4 | K49E;R56E;V178D | decreasing interaction strength

Source: IntAct's records for PubMed 36931259
